# Laboratory results taken from patent publication US20240270813A1 (UNIVERSITY OF PITTSBURGH OF THE COMMONWEALTH SYSTEM OF …, published 2024).
# T1: minor histocompatibility antigen HA-1, immunogenic H variant peptide on HLA-A*02:01 (human)
# T1 peptide: VLHDDLLEA
# Biological target: HA-1 “H” peptide (…) presented by HLA-A*02:01 on antigen presenting cells (human)
# Assay: cell-based or functional assay
row,Binder,EC50 values for CD69 Expression
1,"TCR V (TCR, V domains shown) V domain 1: AQTVTQSQPEMSVQEAETVTLSCTYDTSENNYYLFWYKQPPSRQMILVIRQEAYKQQNATENRFSVNFQKAAKSFSLKISDSQLGDTAMYFCALYSGAGSYQLTFGKGTKLSVIP V domain 2: DTGVSQDPRHKITKRGQNVTFRCDPISEHNRLYWYRQTLGQGPEFLTYFQNEAQLEKSRLLSDRFSAERPKGSFSTLEIQRTEQGDSAMYLCASSLAAGMNTEAFFGQGTRLTVVE",125 ng/mL
2,"TCR W (TCR, V domains shown) V domain 1: AQSVAQPEDQVNVAEGNPLTVKCTYSVSGNPYLFWYVQYPNRGLQFLLKYITGDNLVKGSYGFEAEFNKSQTSFHLKKPSALVSDSALYFCAVRDPTSGTYKYIFGTGTRLKVLA V domain 2: DTGVSQDPRHKITKRGQNVTFRCDPISEHNRLYWYRQTLGQGPEFLTYFQNEAQLEKSRLLSDRFSAERPKGSFSTLEIQRTEQGDSAMYLCASSLVQGNEQFFGPGTRLTVLE",7.18 ng/mL
3,"TCR X (TCR, V domains shown) V domain 1: GENVEQHPSTLSVQEGDSAVIKCTYSDSASNYFPWYKQELGKRPQLIIDIRSNVGEKKDQRIAVTLNKTAKHFSLHITETQPEDSAVYFCVVLGGAGNMLTFGGGTRLMVKP V domain 2: DTGVSQDPRHKITKRGQNVTFRCDPISEHNRLYWYRQTLGQGPEFLTYFQNEAQLEKSRLLSDRFSAERPKGSFSTLEIQRTEQGDSAMYLCASSLTVSDGYTFGSGTRLTVVE",23.6 ng/mL
4,"TCR Y (TCR, V domains shown) V domain 1: SQQGEEDPQALSIQEGENATMNCSYKTSINNLQWYRQNSGRGLVHLILIRSNEREKHSGRLRVTLDTSKKSSSLLITASRAADTASYFCATAYSGGGADGLTFGKGTHLIIQP V domain 2: DTGVSQNPRHKITKRGQNVTFRCDPISEHNRLYWYRQTLGQGPEFLTYFQNEAQLEKSRLLSDRFSAERPKGSFSTLEIQRTEQGDSAMYLCASSLIRAEKLFFGSGTQLSVLE",10.8 ng/mL
5,"TCR Z (TCR, V domains shown) V domain 1: QQVMQIPQYQHVQEGEDFTTYCNSSTTLSNIQWYKQRPGGHPVFLIQLVKSGEVKKQKRLTFQFGEAKKNSSLHITATQTTDVGTYFCAGPKGNTPLVFGKGTRLSVIA V domain 2: DTGVSQDPRHKITKRGQNVTFRCDPISEHNRLYWYRQTLGQGPEFLTYFQNEAQLEKSRLLSDRFSAERPKGSFSTLEIQRTEQGDSAMYLCASSLTVSYEQYFGPGTRLTVTE",1.5 ng/mL
6,"TCR AA (TCR, V domains shown) V domain 1: QQQVKQSPQSLIVQKGGISIINCAYENTAFDYFPWYQQFPGKGPALLIAIRPDVSEKKEGRFTISFNKSAKQFSLHIMDSQPGDSATYFCAASSPGTYKYIFGTGTRLKVLA V domain 2: DTGVSQDPRHKITKRGQNVTFRCDPISEHNRLYWYRQTLGQGPEFLTYFQNEAQLEKSRLLSDRFSAERPKGSFSTLEIQRTEQGDSAMYLCASSLLKNTEAFFGQGTRLTVVE",1.1 ng/mL
7,"TCR AB (TCR, V domains shown) V domain 1: AQSVAQPEDQVNVAEGNPLTVKCTYSVSGNPYLFWYVQYPNRGLQFLLKYITGDNLVKGSYGFEAEFNKSQTSFHLKKPSALVSDSALYFCAVRVPTGGYQKVTFGIGTKLQVIP V domain 2: DTGVSQNPRHKITKRGQNVTFRCDPISEHNRLYWYRQTLGQGPEFLTYFQNEAQLEKSRLLSDRFSAERPKGSFSTLEIQRTEQGDSAMYLCASKLTDTQYFGPGTRLTVLE",40.2 ng/mL
8,"TCR AC (TCR, V domains shown) V domain 1: SQQGEEDPQALSIQEGENATMNCSYKTSINNLQWYRQNSGRGLVHLILIRSNEREKHSGRLRVTLDTSKKSSSLLITASRAADTASYFCAKNDMRFGAGTRLTVKP V domain 2: DTGVSQNPRHKITKRGQNVTFRCDPISEHNRLYWYRQTLGQGPEFLTYFQNEAQLEKSRLLSDRFSAERPKGSFSTLEIQRTEQGDSAMYLCASSLLVGETQYFGPGTRLLVLE",0.9 ng/mL

# Biological target: T1, minor histocompatibility antigen HA-1, …
# Assay: multimer staining
row,Binder,binding result
1,"TCR D (TCR, V domains shown) Valpha: AQSVAQPEDQVNVAEGNPLTVKCTYSVSGNPYLFWYVQYPNRGLQFLLKYITGDNLVKGSYGFEAEFNKSQTSFHLKKPSALVSDSALYFCAVRAPTSGTYKYIFGTGTRLKVLA Vbeta: DTGVSQDPRHKITKRGQNVTFRCDPISEHNRLYWYRQTLGQGPEFLTYFQNEAQLEKSRLLSDRFSAERPKGSFSTLEIQRTEQGDSAMYLCASSLVSGNEQFFGPGTRLTVL",recognises
2,"TCR E (TCR, V domains shown) Valpha: AQSVAQPEDQVNVAEGNPLTVKCTYSVSGNPYLFWYVQYPNRGLQFLLKYITGDNLVKGSYGFEAEFNKSQTSFHLKKPSALVSDSALYFCAVRGPTSGTYKYIFGTGTRLKVLA Vbeta: DTGVSQDPRHKITKRGQNVTFRCDPISEHNRLYWYRQTLGQGPEFLTYFQNEAQLEKSRLLSDRFSAERPKGSFSTLEIQRTEQGDSAMYLCASSLVSGNEQFFGPGTRLTVL",recognises
3,"TCR F (TCR, V domains shown) Valpha: GENVEQHPSTLSVQEGDSAVIKCTYSDSASNYFPWYKQELGKRPQLIIDIRSNVGEKKDQRIAVTLNKTAKHFSLHITETQPEDSAVYFCAAHLTGGGNKLTFGTGTQLKVEL Vbeta: DTGVSQDPRHKITKRGQNVTFRCDPISEHNRLYWYRQTLGQGPEFLTYFQNEAQLEKSRLLSDRFSAERPKGSFSTLEIQRTEQGDSAMYLCASSSRAGGETQYFGPGTRLLVL",recognises
4,"TCR V (TCR, V domains shown) Valpha: AQTVTQSQPEMSVQEAETVTLSCTYDTSENNYYLFWYKQPPSRQMILVIRQEAYKQQNATENRFSVNFQKAAKSFSLKISDSQLGDTAMYFCALYSGAGSYQLTFGKGTKLSVIP Vbeta: DTGVSQDPRHKITKRGQNVTFRCDPISEHNRLYWYRQTLGQGPEFLTYFQNEAQLEKSRLLSDRFSAERPKGSFSTLEIQRTEQGDSAMYLCASSLAAGMNTEAFFGQGTRLTVV",recognises
5,"TCR W (TCR, V domains shown) Valpha: AQSVAQPEDQVNVAEGNPLTVKCTYSVSGNPYLFWYVQYPNRGLQFLLKYITGDNLVKGSYGFEAEFNKSQTSFHLKKPSALVSDSALYFCAVRDPTSGTYKYIFGTGTRLKVLA Vbeta: DTGVSQDPRHKITKRGQNVTFRCDPISEHNRLYWYRQTLGQGPEFLTYFQNEAQLEKSRLLSDRFSAERPKGSFSTLEIQRTEQGDSAMYLCASSLVQGNEQFFGPGTRLTVL",recognises
6,"TCR X (TCR, V domains shown) Valpha: GENVEQHPSTLSVQEGDSAVIKCTYSDSASNYFPWYKQELGKRPQLIIDIRSNVGEKKDQRIAVTLNKTAKHFSLHITETQPEDSAVYFCVVLGGAGNMLTFGGGTRLMVKP Vbeta: DTGVSQDPRHKITKRGQNVTFRCDPISEHNRLYWYRQTLGQGPEFLTYFQNEAQLEKSRLLSDRFSAERPKGSFSTLEIQRTEQGDSAMYLCASSLTVSDGYTFGSGTRLTVV",recognises
7,"TCR Y (TCR, V domains shown) Valpha: SQQGEEDPQALSIQEGENATMNCSYKTSINNLQWYRQNSGRGLVHLILIRSNEREKHSGRLRVTLDTSKKSSSLLITASRAADTASYFCATAYSGGGADGLTFGKGTHLIIQP Vbeta: DTGVSQNPRHKITKRGQNVTFRCDPISEHNRLYWYRQTLGQGPEFLTYFQNEAQLEKSRLLSDRFSAERPKGSFSTLEIQRTEQGDSAMYLCASSLIRAEKLFFGSGTQLSVL",recognises
8,"TCR Z (TCR, V domains shown) Valpha: QQVMQIPQYQHVQEGEDFTTYCNSSTTLSNIQWYKQRPGGHPVFLIQLVKSGEVKKQKRLTFQFGEAKKNSSLHITATQTTDVGTYFCAGPKGNTPLVFGKGTRLSVIA Vbeta: DTGVSQDPRHKITKRGQNVTFRCDPISEHNRLYWYRQTLGQGPEFLTYFQNEAQLEKSRLLSDRFSAERPKGSFSTLEIQRTEQGDSAMYLCASSLTVSYEQYFGPGTRLTVT",recognises
9,"TCR AA (TCR, V domains shown) Valpha: QQQVKQSPQSLIVQKGGISIINCAYENTAFDYFPWYQQFPGKGPALLIAIRPDVSEKKEGRFTISFNKSAKQFSLHIMDSQPGDSATYFCAASSPGTYKYIFGTGTRLKVLA Vbeta: DTGVSQDPRHKITKRGQNVTFRCDPISEHNRLYWYRQTLGQGPEFLTYFQNEAQLEKSRLLSDRFSAERPKGSFSTLEIQRTEQGDSAMYLCASSLLKNTEAFFGQGTRLTVV",recognises
10,"TCR AB (TCR, V domains shown) Valpha: AQSVAQPEDQVNVAEGNPLTVKCTYSVSGNPYLFWYVQYPNRGLQFLLKYITGDNLVKGSYGFEAEFNKSQTSFHLKKPSALVSDSALYFCAVRVPTGGYQKVTFGIGTKLQVIP Vbeta: DTGVSQNPRHKITKRGQNVTFRCDPISEHNRLYWYRQTLGQGPEFLTYFQNEAQLEKSRLLSDRFSAERPKGSFSTLEIQRTEQGDSAMYLCASKLTDTQYFGPGTRLTVL",recognises
11,"TCR AC (TCR, V domains shown) Valpha: SQQGEEDPQALSIQEGENATMNCSYKTSINNLQWYRQNSGRGLVHLILIRSNEREKHSGRLRVTLDTSKKSSSLLITASRAADTASYFCAKNDMRFGAGTRLTVKP Vbeta: DTGVSQNPRHKITKRGQNVTFRCDPISEHNRLYWYRQTLGQGPEFLTYFQNEAQLEKSRLLSDRFSAERPKGSFSTLEIQRTEQGDSAMYLCASSLLVGETQYFGPGTRLLVL",recognises
12,"TCR AD (TCR, V domains shown) Valpha: SQQGEEDPQALSIQEGENATMNCSYKTSINNLQWYRQNSGRGLVHLILIRSNEREKHSGRLRVTLDTSKKSSSLLITASRAADTASYFCATVPTDYMYSGGGADGLTFGKGTHLIIQP Vbeta: DTGVSQNPRHKITKRGQNVTFRCDPISEHNRLYWYRQTLGQGPEFLTYFQNEAQLEKSRLLSDRFSAERPKGSFSTLEIQRTEQGDSAMYLCASSLVRLDGYTFGSGTRLTVV",recognises
13,"TCR AJ (TCR, V domains shown) Valpha: EDQVTQSPEALRLQEGESSSLNCSYTVSGLRGLFWYRQDPGKGPEFLFTLYSAGEEKEKERLKATLTKKESFLHITAPKPEDSATYLCAVHSNAGGTSYGKLTFGQGTILTVHP Vbeta: DAGVTQSPTHLIKTRGQHVTLRCSPISGHKSVSWYQQVLGQGPQFIFQYYEKEERGRGNFPDRFSARQFPNYSSELNVNALLLGDSALYLCASSADRGSPLHFGNGTRLTVT",recognises
